Results from patent US20230405046A1.

B1: TCRCD8-EL8-LM7 #4 (TCR)
TCR alpha: AQKVTQAQTEISVVEKEDVTLDCVYETRDTTYYLFWYKQPPSGELVFLIRRNSFDEQNEISGRYSWNFQKSTSSFNFTITASQVVDSAVYFCALSNAGGTSYGKLTFGQGTILTVHPNIQNPDPAVYQLRDS
TCR beta: EAQVTQNPRYLITVTGKKLTVTCSQNMNHEYMSWYRQDPGLGLRQIYYSMNVEVTDKGDVPEGYKVSRKEKRNFPLILESPSPNQTSLYFCASSRRLPPPYGYTFGSGTRLTVVEDLNKVFPPEVAVFE
B2: TCRCD8-EL8-LM7 #7 (TCR)
TCR alpha: AQKVTQAQTEISVVEKEDVTLDCVYETRDTTYYLFWYKQPPSGELVFLIRRNSFDEQNEISGRYSWNFQKSTSSFNFTITASQVVDSAVYFCALSESSNTGKLIFGQGTTLQVKPDIQNPDPAVYQLRDS
TCR beta: EAQVTQNPRYLITVTGKKLTVTCSQNMNHEYMSWYRQDPGLGLRQIYYSMNVEVTDKGDVPEGYKVSRKEKRNFPLILESPSPNQTSLYFCASSRREPPPYGYTFGSGTRLTVVEDLNKVFPPEVAVFE
B3: TCRCD8-EL8-LM7 #1 (TCR)
TCR alpha: AQKITQTQPGMFVQEKEAVTLDCTYDTSDPSYGLFWYKQPSSGEMIFLIYQGSYDQQNATEGRYSLNFQKARKSANLVISASQLGDSAMYFCAMREGQDSSYKLIFGSGTRLLVRPDIQNPDPAVYQLRDS
TCR beta: MGTRLLCCVAFCLLGAGPVDSGVTQTPKHLITATGQRVTLRCSPRSGDLSVYWYQQSLDQGLQFLIQYYNGEERAKGNILERFSAQQFPDLHSELNLSSLELGDSALYFCASSVLGPNTEAFFGQGTRLTVVEDLNKVFPPEVAVFE
B4: TCRCD8-EL8-LM7 #8 (TCR)
TCR alpha: AQKITQTQPGMFVQEKEAVTLDCTYDTSDPSYGLFWYKQPSSGEMIFLIYQGSYDQQNATEGRYSLNFQKARKSANLVISASQLGDSAMYFCAMREIRDSSYKLIFGSGTRLLVRPDIQNPDPAVYQLRDS
TCR beta: MGTRLLCCVAFCLLGAGPVDSGVTQTPKHLITATGQRVTLRCSPRSGDLSVYWYQQSLDQGLQFLIQHYNGEERAKGNILERFSAQQFPDLHSELNLSSLELGDSALYFCASSPAGPNTEAFFGQGTRLTVVEDLNKVFPPEVAVFE

Each binder was assayed against HLA-A*01:01 presenting KRAS-Q61H 55-64 (…) (human) (assay: cell-based or functional assay).
B1 gave a minimal recognized peptide concentration (functional avidity, IFNγ ELISPOT) of 10 nM.
B2 was tested, and the minimal recognized peptide concentration (functional avidity, IFNγ ELISPOT) was 10 nM.
B3 was tested, and the minimal recognized peptide concentration (functional avidity, IFNγ ELISPOT) was 10 nM.
In the case of B4, the minimal recognized peptide concentration (functional avidity, IFNγ ELISPOT) is reported as 100 nM.
